Self-cleavage data for 34 variants are collected here from the RNAGym collection of RNA variant scans (doi:10.1093/nar/gkz1192).

B1: CPEB3 Ribozyme (parent)
chain: UAACAGGGGGCCACAGCAGAAGCGUUCACGUCGCAGCCCCUGUCAGAUUCUGGUGAAUCUGCGAAUUCUGCUGUAUAUCUC

The series covers variants of B1. As to the kind of experiment: self-cleavage, relative activity (ratio to wild type); higher = more cleavage; in vitro, sequencing. The method, boiled down: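 Libraries of CPEB3 self-cleaving ribozyme mutants came from rounds of error-prone PCR and carried barcodes, which DNA sequencing matched to variants. In vitro transcription used T7 RNA polymerase at 37°C for 5 hours, with a further 15 min in DNase I before EDTA stopped the reaction; the ribozymes cleaved during both steps. The RNA was reverse transcribed with template switching and sequenced on Illumina. Relative activity is the cleaved/total read fraction of a variant divided by that of the unmutated ribozyme, averaged over three batches with at least 5 reads.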
On to UAACAGGGGGCCACAGCAGAAGCGUUCACGUCGCAGCCCCUGUCAGAUGCCGGUGAAUCUGCGAAUUCUGCUGUAUAUCUC [U49G U51C], for which the self-cleavage turned out to be 0.63.
As for UAACAGGGGGCCACAGCAGCAGCGUUCACGUCGCAGCCCCUGUCAGAUUCUGGUGAAUCUGCGAAUUCUGCUGUAUAUCCC [A20C U80C], the self-cleavage is 0.54.
Turning to UAACAGGGGGCCACAGCAAAAGCGUUCACGUCGCAGCCUCUGUCAGAUUCUGGUGAAUCUGCGAAUUCUGCUGUAUAUCUC [G19A C39U], the self-cleavage is 0.33.
Then UAACAGGGGGCCACAGCAGAAGGGUUCGCGUCGCAGCCCCUGUCAGAUUCUGGUGAAUCUGCGAAUUCUGCUGUAUAUCUC [C23G A28G], with 0.17; and UAACAGGGGGCCACAGCAGAAGCGUUCACGUCGCGGCCCCUGUCAGAUUCUGGCGAAUCUGCGAAUUCUGCUGUAUAUCUC [A35G U54C], with 1.29; and UAACAGGGGGCCACAGCACAAGCGUUCACGUCGCAGCCCCUGUCAGAUUCUGAUGAAUCUGCGAAUUCUGCUGUAUAUCUC [G19C G53A], with 0.09.
Then UAACAGGGGGCCACAGCAGAAGCGUUCACGUCGCAGCCCCUGUCAGAUUCUGGCGAAUCUGCGAAUUGUGCUGUAUAUCUC [U54C C68G], with 0.29; and UAACAGGGGGCCACAGCAGAAGCGUUCACGUCGCAGCCCCUGACAGAUUCUGGUGAAACUGCGAAUUCUGCUGUAUAUCUC [U43A U58A], with 0.72; and UAACAGAGGGCCACAGCAGAAGCGUCCACGUCGCAGCCCCUGUCAGAUUCUGGUGAAUCUGCGAAUUCUGCUGUAUAUCUC [G7A U26C], with 0.25.
As to UAACAGGGGGCCACAGCAGAAGCGUUCACGUCGCAGCCCCUGUCAGAUUCUCGUGAAUCUGCGGAUUCUGCUGUAUAUCUC [G52C A64G], the self-cleavage amounted to 1.04.
With UAACAAGGGGCCACAGCAGAAGCGUUCACGUCGCAGCCCCUGUCAGAUUCUGGUGAAGCUGCGAAUUCUGCUGUAUAUCUC [G6A U58G], the self-cleavage worked out at 0.29.
As for UAACAGGGGGCCACAGCAGAAGCGUUCGCGUCGCAGCCCCUGUCACAUUCUGGUGAAUCUGCGAAUUCUGCUGUAUAUCUC [A28G G46C], the self-cleavage turned out to be 0.08.
As to UAACAGGGGGCCGCAGCAGAAGCGUUCACGUCGCAGCCCCUGUCAGAUUCUGAUGAAUCUGCGAAUUCUGCUGUAUAUCUC [A13G G53A], the self-cleavage was 0.92.
With UAACUGGGGGCCACAGCAGAAGCGUUCACGUCGUAGCCCCUGUCAGAUUCUGGUGAAUCUGCGAAUUCUGCUGUAUAUCUC [A5U C34U], the self-cleavage worked out at 0.55.
As to UAACAGGGGGCCACAGCAGAAGCGUUCACGUCGCAGCCCCUGUCAGAUUCUGGUGAACCUGCGAAUUCAGCUGUAUAUCUC [U58C U69A], the self-cleavage is 0.3.
On to UAACAGGGGGCCACAGCAGAAGCGCUCACGUCGCAGCCCCUGUCAGGUUCUGGUGAAUCUGCGAAUUCUGCUGUAUAUCUC [U25C A47G], for which the self-cleavage is 0.27.
Turning to UAACAGGGGGCCACAGCAGCAGCGUUCACGUCGCAGCCCCUGUCAGAUUCUGGUGAAUCUGCGAGUUCUGCUGUAUAUCUC [A20C A65G], the self-cleavage was 0.42.
The figure for UAACAGGGGGCCUCAGCAGAAGCGUUCACGUCGCAGCCCCUGUCAGAUUCUAGUGAAUCUGCGAAUUCUGCUGUAUAUCUC [A13U G52A] is 1.22.
On to UAACAGGGGGCCACAGCAGAAGCGUUCACGUCUCAGCCCCUGUCAGAUUCGGGUGAAUCUGCGAAUUCUGCUGUAUAUCUC [G33U U51G], for which the self-cleavage is 0.09.
Take UAACAGGGGGCCACAGCCGAAGCGUUCACGUCGCAGCCCCUGUCAGAUUCUGGUGAAUCUGCGAUUUCUGCUGUAUAUCUC [A18C A65U]: the self-cleavage was 0.16.
With UAACAGGGGGCCACAGCAGAAGCGUUCACGACGCAGCCCCUGUCAGAUUCUGGUGAAUCUGCGAGUUCUGCUGUAUAUCUC [U31A A65G], the self-cleavage came to 0.36.
As for UAACGGGGGGCAACAGCAGAAGCGUUCACGUCGCAGCCCCUGUCAGAUUCUGGUGAAUCUGCGAAUUCUGCUGUAUAUCUC [A5G C12A], the self-cleavage is 0.4.
In the case of UAACAGGGGGCCACACCAGAAGCGUUCACGUCGCAGCCCCCGUCAGAUUCUGGUGAAUCUGCGAAUUCUGCUGUAUAUCUC [G16C U41C], the self-cleavage turned out to be 0.42.
Then UAACAGGGGGCCACAGCAGAAGCGUUCACGUCGCAGCCCCUGUCAGAUACUGAUGAAUCUGCGAAUUCUGCUGUAUAUCUC [U49A G53A], with 0.79.
For the variant UAACGGGGGGCCACAGCAGAAGCGUUCACGUCGCAGCCCCUGUCAGAUUCUGGUGAUUCUGCGAAUUCUGCUGUAUAUCUC [A5G A57U], the self-cleavage was determined as 1.04.
The figure for UAACAGGGGGCCACAGCGGAAGGGUUCACGUCGCAGCCCCUGUCAGAUUCUGGUGAAUCUGCGAAUUCUGCUGUAUAUCUC [A18G C23G] is 0.61.
For UAACGGGGGGCCACAGCAGAAGCCUUCACGUCGCAGCCCCUGUCAGAUUCUGGUGAAUCUGCGAAUUCUGCUGUAUAUCUC [A5G G24C], the self-cleavage stood at 0.89.
Regarding UAACAGGGGGCCACAGCAGAAGCGUUCACGUCGCAGCCCCUGUCAGAUUCUGGAGAAUCUGCGAAUUCUGCUGUAUAUCCC [U54A U80C], the self-cleavage is 1.14.
In the case of UAACAGGGGGCUACAGCAGAGGCGUUCACGUCGCAGCCCCUGUCAGAUUCUGGUGAAUCUGCGAAUUCUGCUGUAUAUCUC [C12U A21G], the self-cleavage is 0.86.
Regarding UAACAGGGGGCCACAGCAGAAGCGUUCACGUCGCAGCCCCUGUCAGAUUCUGGUGAAUCUGCGAAGUCCGCUGUAUAUCUC [U66G U69C], the self-cleavage amounted to 0.31.
UAACAGGGGGCCACAGCAGAAGCGUUCACGUCGCAGCCCCUGUCAGUUUCUGGUGAAUCUGCGAGUUCUGCUGUAUAUCUC [A47U A65G]: the self-cleavage was 0.35.
Take UAACAGGGGGCCUCAGCAGAAGCGUUCACGUCGCAGCCCCUGUCAGAUUCUGGUGAAUCAGCGAAUUCUGCUGUAUAUCUC [A13U U60A]: the self-cleavage worked out at 0.73.
In the case of UAACGGGGGGCCACAGCAGAAGCGUUCACGUCGCAGCCCCUGUCAGAUUCUGGUGAAUCUGCGAAUUCUUCUGUAUAUCUC [A5G G70U], the self-cleavage amounted to 0.41.
Regarding UAACAGGGGGCCACAGCAGAAGCGUUCACGUCGCAGCCCCUGUCAGAUUCUGGCGAAUCUGCGAAUUCUGCUGUUUAUCUC [U54C A75U], the self-cleavage came out at 1.2.
